The text below walks through data of a protein production outcome set (Wang et al. 2014).
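Note: failed if final PepcDB status was selected cloned or expressed and not failed if soluble or beyond.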

The series is described as follows: label from the status in PepcDB records.
Regarding “ATDSATAAPAAAATTQVQKEAADVLQVAVQGANAMRDIQFARLALFHGQPDSAKKLTDDAAALLAADDASWAKFVKTDAKAKMIADRYVIINASIALSEDYVATPEKESAIQSANEKLAKGDQKGAIDTLRLAGIGVIENQYLMPLNQTRKAVAQSQELLKAGKYYEANLVLKGAEEGIVVDSEMLVAGN”, the protein production entry is listed as “not failed”.
The result for “MSTNQEKLFGRLLLKNDILQLIKNTDKISVSKIFSNFLLETKVNPILGMTSISSNKIKCNRCGTVHIKNSVKLPIGVFYCPSCIQLGRVRSDDFLYFLPQKNFPKKSYINWSGKLTENQKSISNALCQEINSHQQIIVQAVTGAGKTEMIYQVIEQILESGGVVGLASPRIDVCLELHQRLSRDFSCKIPLLYHDGDSYFRAPLIIMTSHQLLRFKEAFDLLIIDEVDAFPFRDNEMLYVAAEKARKIEGNLIYLTATSTDKLEKDIKKQKLYPLFLPRRFHNFPLVVPKFFWKNKFDKKLIEQRNSGFPLLIFAAEIEFGQEFAKQLQLKFPKEKIASVASTTKDRLEIVKAFRNKEITILIATSILERGVTFPNVDVFVINSEHPNFTKSALIQMAGRVGRSPERPTGLVSFFHYGKSKAMCQAVREIKKMNQLGCFS” reads “failed”.
Turning to “MKLFKELEETKEQVIKMAKLVQEAIDKATEALNKQNVELAEEVIKGDDTIDLLEVDIERRCIRMIALYQPEAGDLRMIMGIYKIVSDLERMGDEAENIAERAILLAEEPPLKPYVNINFMSEIVKEMVNDSVISFIQQDTLLAKKVIEKDDTVDELYHQLERELMTYVLEDPRNIKRAMHLSFVARHYERIADHAENVAEAAIYLSEGEIVKHQHIKEKGE”, the protein production entry is listed as “not failed”.
Next, “MGRRKKILFTDYFINLVDTYKLNQVGERTYNKYCLTHRHLKKICPDLYLQDMNANDYQQILNEFGKTHEKATTVDFHHQLAWALKRAYNVDGLTDRDVTYDAQIPKGVVTNKKKPKFMELDDMKKLVVTLKYLNSSYANFFLILLKTGLRFAELLGITLEDIDFEKKTISINKTLDYKKGAYDENFSRRFKSTKNKYSIRTIPVDDAVIYMFWRNAKGADKDESIFGSIKGFQYNSSLNNKLEQTCKYAGVPVITLHGLRHEHATYLVSQGIDSRAVAERLGHVDDSVTREVYIHRLETERVRDNQQIMRSVSKI”: “failed”; “MVSTRTHANGPADAGRTRLLFAAEIFPMNVFSRYLIRHLFLGFAAAAGLLLPLFTTFNLINELDDVSPGGYRWTQAVLVVLMTLPRTLVELSPFIALLGGIVGLGQLSKNSELTAIRSMGFSIFRIALVALVAGILWTVSLGAIDEWVASPLQQQALQIKSTATALGEDDDITGNMLWARRGNEFVTVKSLNEQGQPVGVEIFHYRDDLSLESYIYARSATIEDDKTWILHGVNHKKWLNGKETLETLDNLAWQSAFTSMDLEELSMPGNTFSVRQLNHYIHYLQETGQPSSEYRLALWEKLGQPILTLAMILLAVPFTFSAPRSPGMGSRLAVGVIVGLLTWISYQIMVNLGLLFALSAPVTALGLPIAFVLVALSLVYWYDRQH”: “failed”; “AIAAVKAQVLYDFTAEPGNNELTVHEGETLTITNQNVGGGWVEAQNSRGNVGLVPVDYVEVNSASAQAPATQYIDARNQGNNNSTANTQGVNGNEAWTATTWSNSYPADNWNYTEQEPAGNNGSVYSFDEEWDDDSDDGKSTGGYGGSQAEDGGTMQRSGAHSTMKLSLNKFPGFSKTPNPEVYLLTKHITKGNDRLSVYPGEVGPVWLYPQTQLDCVVADPKKGSKMYGLKSYIEYQITPNTTNRPVNHRYKHFDWLYERLVEKFACALPVPGLPDKQVTGRFEEEFIKMRMERLQGWMSRMCRHPVISNSEVFQLFLNYRDEKEWKLGKRKAEKDETVGVKIFSTIDPELPELDPAQVEQKYEVYNQFTRSMDNSVKELLAVGNLHWKRCTGPLQKEYRQIGKAFQNMSSVFNTSGYPRESTLTEALTATGKTYEEIAEVIAAQPRKDLHFLLETNNEYKGLLGCFPDTIGVHKAAIDKVKEADHLVMTNKISQQDKHTMEKNLSTMSYALQAEMNHFHSNRIYDYNRLMQFYLEEQVKFYETIAEKLKKALGQYTTI”: “failed”.
Next, “MQIVTDKNKVALYYKDIAVTYKEFILNTKKIKQFTKIKEFTNNMIYMENRPELLYSFFAIWDSRATCVCIDASSTAVELTYYIDNSDVVKIFTTKMQVEKVKGALSILSKQIEIIVVDEINLSEIKIDENSSENLVINSPEKEDTALILYTSGTTGKPKGVMLTFDLEHHHHHH”: “failed”.
The result for “MPAIFTHEGKVEGVPGNYPLTAENLFRIGLALCTLWILDKEIEEPTLSIPETNFVTLALSVGFMNAGGSVNVGKGGDIKLFLQKGEIYVLEFQPLSETDIKKLESILFGRAPIPKKTGEDIGSFKC” reads “not failed”; that for “MTLLDSMIVMIYLLFIGIAAWLFRRFSTSSNDFLQGGGTMMWWMAGATAFMTQFSAWTFTGAAAKAYEDGISVMFIFWGNALGFFVAAAFFARRYRRLRVETAMEVIRVRFGHTSEQLFTWLSFPLTLIACAIWMNGLASFFSAVFAIEMSTTILAMGVIVTLIAVSGGAWTVSVTNVIQLVLLIAITLVIGYTALQHFDSPSEVFAYTTPIYGEQIRMPSLFVMWAIAMLLQQTMSNNHTLSCYRFLTTANDKDATKAAFVAGVLFVFAPVLWFMPAWFVAAQNIDLLAIYPALEQSANNAAYLYYIQHYMPQGLLGLVMVALVAATIAPLSSAHNRNAGIVVKSLYQVWFNPNATSRQQLMVGKIATIVSGILATVTALLLASVESYSLFDMMIVFAAFIQMPINIPSLLALVSLKTPNWSGWATVMVGCVVSLFMMFIFDVQWISSSPLTPRESKDLSVVATLAVHLLVTGGFFLSTRVFYAKESPSIQQSRTALSIQLATPISDEELSPINHKQGLYVGSITALAGMLLILAGVVLAGSSQSIFVAIGCIVLLFSLFLLQPTLHSKRAWQKQKTK”, “failed”.
As for “RDTSVVVEHTSANPTGPVHVGRARNPIIGDAVARVLDYAGYDVDRHYYVNDAGRQIAVFTWAYETFDEDDLPEPERESPEYEMVRYYRKGNTILEDGDPDEVEAAEAEVQSILQGLEDGDEETYERVAEVVDTVLGGMQNTLGRLPAEFDEFVKETKFMRNGDTDDLVDRLKGLDCAVYEEDAWQLDLPDFEKNLVFLRSDGTSLYTTRDLAHHEWKFDTYDRAVTVLGEDHKLQADQLAAALELLDNDTDQLRQVFYSWVNLPEGGMSTREGTGIDLDDLLDEAIDRAREEVESRLDDRTRGDLDEDDIDRIARQVGIGAVRYDIVSKQPTKGITFEWDRALDFEAQSAPYVQYV”, the protein production entry is “failed”.
On to “MMMKIGDKLKGKITGIKPYGAFVQLENGSIGLIHISEIKTGYIDNIYQTLSVGQEVLVQVVDYDEYSQKASLSLRTLEEEKHHYQHRHRFSNNRLNIGFKPLEEHLPIWVEENLDYLKKDQDESDNQAKD”, for which the protein production result is on record as “failed”.
The result for “MLTLHIGGIGIGEPLWFICNILVSFIFSYKLFNSILHNNNISYIFALIYTFSPAMAVLTYSTSWETVLSYAFSPLILYLLYLTFNNLELKGLSFDLILISIFMYVYYFDTDVIMWEGILVVSMLIYLTISHTNRKNCS” reads “failed”.
Next, “MGHHHHHHSHMASPSKAVIVPGNGGGDVTTHGWYGWVKKELEKIPGFQCLAKNMPDPITARESIWLPFMETELHCDEKTIIIGHSSGAIAAMRYAETHRVYAIVLVSAYTSDLGDENERASGYFTRPWQWEKIKANCPYIVQFGSTDDPFLPWKEQQEVADRLETKLHKFTDCGHFQNTEFHELITVVKSLLKVPA”: “failed”.
The result for “MQQFATLSLASLLMLGTFTAFAAENGDAPASGWHIDDSATKGASGQQGMFDGVRLTEQQRQQMRDLMHQSRQDKPAFNTEDVKAMHKLVTAETFDEAAVRAQITRMMSVQIERQIQMTRVRNQMYNLLTPAQKEILELKHKQRMKEMQQQISMFNQMVAPSSGTTNHTETDSPELEHHHHHH” reads “not failed”; that for “MLKLNLKKSFQKDFDKLLLNGFDDSVLNEVILTLRKKEPLDPQFQDHALKGKWKPFRECHIKPDVLLVYLVKDDELILLRLGSHSELF”, “failed”; that for “MNTIRPVSDLRNNFADISKIVHQSQQPVFLTKNGYGDMVVMSMETFEDMKFESDIYSKLQEAEKQASLTGKRFSSKDVFEEIQKLISELEHHHHHH”, “not failed”.
Turning to “PAAEAAPMSLAIHSTTGTRYDLAVPPDETVEGLRKRLSQRLKVPKERLALLHKDTRLSSGKLQEFGVGDGSKLTLVPTVEAGLMSQASRPEQSVMQ”, the protein production result was “failed”.
The result for “MEGFVLAGTSSGVGKTVATLATLTALEDAGYQPQPAKAGPDFIDPSHHEALVDTPSRTLDPWLAGEDGMRRTYWRGTGDICVVEGVMGLYDGTKTSTAAVAEGLDLPVVLVVDAKAGMESVAATALGFAQYADRIGVDIEVAGILAQRAHGGRHADGIRDALPEDLTYFGRIPPMSDLEIPDRHLGLHMGSEAGLDRDALSTAAETIDIERLVETARAPPEVATTERNTGDSPADRRVAVAQDSAFCFIYPSVLERLRSEASVEPFSPVAGDSVPDADAIYLPGGYPELHGESLETGGTLDEIAVRAADGVPVYGECGGLMALSESLTTTDGDTYEMAGVLPADIEMQDRYQALDHVELEARADTVAATSGAHRRGHEFHYSAATLGSDASFAFDMVRGDGIDGEHDGLTEYSTIGTYCHCHGESGAFDRLLAVPSKDILEHHHHHH” reads “failed”; that for “MTFHWKDLTPWRRIKGVAITILYLLFCIWAGPFWLIFLPLIVDYYFFHIIKWGWYKNIRNKTLRIICSWVADIIYCVVAVTFIFAFLFQNFAIPTSSLEKTLLIGDYLFVSKLSYGPRSPMTPLGVPLTHNTMPLTGGKSFSDKPLLPYKRLKGFGHVKEGDLVVFNFPAGDTVAVKQPNPDYYMWKKLVGREELWSNPDFYGEIVYRPVDRRDHYVKRCVGMPGQELSIRNNQIYIDGKEQRNPRNMQLNYLVRMSREMSVDLIDELGISYDDVRAASSEELKASVGSNLIDSASNQPQIIYHLPLTQGMLDKLQAEPSFVKAVEEPTPIGPLYPLEYETGWTRDNYGPIVIPAKGMTVRLTPLNLALYSRCIRNFEGNKLVQKADGTVLINGRPADSYTFKMDYYFMMGDNRHNSADSRYWGFVPEDHIVGKPVFIWLSLNKDKSLFGGKIRFGRMMRTVNAD”, “failed”.
Next, “MSTDTCIKRPTRSELVDRFQKKIRAGEPIIGGGAGTGLSAKSEEAGDIDLIVIYNSGRYRMAGRGSLAGLLAYGNANQIVVDMAREVLPVVRHTPVLAGVNGTDPFMVMSTFLRELKEIGFAGVQNFPTVGLIDGLFRQNLEETGMSYAQEVEMIAEAHKLDLLTTPYVFSPEDAVAMAKAGADILVCHMGLTTGGAIGARSGKSMDDCVSLINECIEAARTIRDDIIILSHGGPIANPEDARFILDSCQGCHGFYGASSMERLPAEEAIRSQTLAFKAIRRQPA”: “not failed”.
Next, “MNQAMDTKQIAPFTLALPEGEALPLVCDSPHSGTFYPADFGAVVAPERLRGGEDTHVDALWEAVPRVGGTLLAATFPRVYIDPNRMLDDIDPAQLEGPWPTPLAPGEKTRLGYGLIWSNVDAATPIYDRKLTVAEVQRRINRYYRPYHAALTEAVEGAYQRFGAVWHLNLHSMPNNAYERLKIQSPRPLADFVLGDRDGTTCEPGLVDLVERELREKGYTVARNDPYKGVQLIAQIGRPAERRNSLQIEIRRPLYMEEGTRERNEGFATLQRDLTLLTLRIAEYVRRGV”: “not failed”.
Take “MNMYRVLLIILGWISVVLATLGVVLPLLPTTPFLLLAAWCFARSSPRFHNWLLHRSWFGSYLRHWQQHRALPPGAKWKAVTMILLTFALSLWLVKLVWVRILLLVILTILLTFMLRLPVVDPEQQTQGADPKR”: the protein production entry is “failed”.
In the case of “DKSNKLQNLVAEQLVGCGFNEILNNSLTRAAYYDGLESYPSKNLVMLLNPLSADLNCMRQTLLFGGLESIAHNANRKNADLKFFEFGNCYHFDAEKKNPEKVLAPYSEDYHLGLWVTGKMVSNSWAHADENTSVYELKAYVENIFKRLGLDLHSLVVGNLSDDIYSTALTVNTKGGKRLATFGVVTKKMLKAFDVDNEVYYADLNWKELM”, the protein production entry is given as “not failed”.
